Data on one substance can be found in US7465787.

The target of the assay is biotinylated soluble single-chain Vb8-Va3 TCR (mouse). The assay is described as follows: flow cytometry titration of whole yeast cells with biotinylated scTCR, Scatchard analysis; assumes 100% active scTCR.

What is called Kd is the equilibrium constant for the complex coming apart. “wt scFv-KJ16 displayed on yeast as Aga2p-HA-scFv-KJ16-c-myc fusion (from UniProt P32781 19-87)” returned a dissociation constant (Kd) of 500 nM.
